Data on 11 substances can be found in patent publication US20080299140A1, “Immunogenic Composition and Peptide Sequences for Prevention and Treatment of an Hsv Condition” (priority 2002, published 2008).

Experiment [1] deals with HLA-DR(α1*0101,α1*1501) (human). The experiment is described as follows: reference IC50 of the tracer peptide in the HLA class II competition assay.
Experiment [2] addresses DP402=HLA-DR(α1*0101,α1*0402) (human). The experiment can be described thus: HLA class II competition binding assay, biotinylated tracer peptide.
In experiment [3] the target is DRB4=HLA-DR(α1*0101,α4*0101) (human). Described as above.
Experiment [4] deals with DR13=HLA-DR(α1*0101,α1*1301) (human). Described as above.
The target of experiment [5] is DR1=HLA-DR(α1*0101,α1*0101) (human). The description is as above.
The target of experiment [6] is DRB5=HLA-DR(α1*0101,α5*0101) (human). The description is as above.
The target in experiment [7] is DR15=HLA-DR(α1*0101,α1*1501) (human). The description is as above.
The target in experiment [8] is DRB3=HLA-DR(α1*0101,α3*0101) (human). Described as above.
In experiment [9] the target is DP401=HLA-DP(α1*0101,α1*0401) (human). The experiment is described as above.
For experiment [10], the target named is DR4=HLA-DR(α1*0101,α1*0401) (human). The description is as above.
The target of experiment [11] is DR11=HLA-DR(α1*0101,α1*1101) (human). The description is as above.
The target of experiment [12] is DR3=HLA-DR(α1*0101,α1*0301) (human). The description is as above.
In experiment [13] the target is HLA-DR(α1*0101,α1*1301) (human). The experiment can be described thus: competition assay on purified HLA; tracer B1 (21-36).
Experiment [14] concerns the target HLA-DR(α1*0101,α1*1501) (human). The experiment is described as follows: competition assay on purified HLA; tracer A3 (152-166).
Experiment [15] deals with HLA-DR(α1*0101,α4*0101) (human). The experiment is described as follows: competition assay on purified HLA; tracer E2/E168.
The target in experiment [16] is HLA-DR(α1*0101,α1*1101) (human). The experiment is described as follows: competition assay on purified HLA; tracer HA (307-319).
Experiment [17] concerns the target HLA-DR(α1*0101,α1*0101) (human). Described as above.
Experiment [18] has as its target HLA-DR(α1*0101,α5*0101) (human). Described as above.
In experiment [19] the target is HLA-DR(α1*0101,α1*0401) (human). The experiment is described as above.
Experiment [20] addresses HLA-DR(α1*0101,α3*0101) (human). The experiment is described as follows: competition assay on purified HLA; tracer LOL (191-210).
Experiment [21] deals with HLA-DP(α1*0101,α1*0401) (human). The experiment can be described thus: competition assay on purified HLA; tracer bOxy 271-287.
Experiment [22] concerns the target DP (α1*0101, α1*0402) (human). The experiment is described as above.
Experiment [23] concerns the target HLA-DR(α1*0101,α1*0301) (human). The experiment can be described thus: competition assay on purified HLA; tracer MT (2-16).
In experiment [24] the target is DR7=HLA-DR(α1*0101,α1*0701) (human). The experiment can be described thus: HLA class II competition binding assay, biotinylated tracer peptide.
Experiment [25] deals with HLA-DR(α1*0101,α1*0701) (human). The experiment is described as follows: competition assay on purified HLA; tracer YKL.
For experiment [26], the target named is HLA-DR(α1*0101,α1*1101) (human). The experiment is described as follows: reference IC50 of the tracer peptide in the HLA class II competition assay.

A3 (152-166) (peptide) came in with a half-inhibitory concentration (IC50) in experiment [1] of 0.013 µM.

Turning to HSV1 35 (gD287-317) (peptide), the concentration for half-maximal inhibition (IC50) in [2] is greater than 100 µM; in experiment [3], 3.26 µM; in [4] it was greater than 100 µM; in [5], 3.16 µM; in experiment [6], 4.5 µM; in [7], 6.79 µM. For the same substance, the IC50 was 5 µM in [8]; greater than 100 µM in [9]; 0.6 µM in [10]; 25 µM in experiment [11]; 19.5 µM in experiment [12]; greater than 100 µM in [13]. Also, the IC50 in [14] worked out at 6.79 µM; in experiment [15] it was 3.26 µM; in [16] it was 25 µM; in [17], 3.16 µM; in experiment [18] it was 4.5 µM; in [19], 0.6 µM. Further, the IC50 in [20] was 5 µM; in [21] it was greater than 100 µM; in [22] it was greater than 100 µM; in [23], 19.5 µM.

Consider HSV1 29 (gD1-23) (peptide), for which the IC50 in experiment [2] is 1.63 µM; in [3], 52.5 µM; in experiment [4], greater than 100 µM; in experiment [24], 0.894 µM; in experiment [6] it was 0.008 µM; in [7], 24.5 µM. For the same substance, the IC50 is 1.4 µM in [8]; 17.6 µM in [9]; 0.082 µM in [10]; 5.25 µM in experiment [11]; 0.12 µM in [12]; greater than 100 µM in experiment [13]. Moreover, the IC50 in experiment [14] was 24.5 µM; in [15], 52.5 µM; in [16], 5.25 µM; in experiment [18] it was 0.008 µM; in experiment [19], 0.082 µM; in experiment [20], 1.4 µM. Moreover, the IC50 was 17.6 µM in experiment [21], 1.63 µM in [22], 0.894 µM in [25] and 0.12 µM in experiment [23].

For HSV1 31 (gD22-52) (peptide), the IC50 was 49 µM in [2]; 0.397 µM in [3]; greater than 100 µM in experiment [4]; 0.003 µM in experiment [5]; 6.98 µM in experiment [8]; 62 µM in experiment [9]. In addition, the IC50 is 0.063 µM in [10]; 2.49 µM in experiment [12]; greater than 100 µM in [13]; 0.397 µM in [15]; 0.003 µM in experiment [17]; 0.063 µM in experiment [19]. In addition, the IC50 came to 5.98 µM in experiment [20], 62 µM in experiment [21], 47 µM in experiment [22] and 2.49 µM in experiment [23].

HSV1 33 (gD121-152) (peptide): the IC50 is 0.065 µM in experiment [2]; 0.319 µM in experiment [3]; 0.019 µM in [24]; 0.053 µM in [5]; 0.134 µM in [6]; 0.002 µM in [7]. Further, the IC50 in experiment [8] was 0.226 µM; in experiment [9], 0.083 µM; in experiment [10], 0.006 µM; in [11], 0.289 µM; in experiment [12], 0.066 µM; in experiment [14] it was 0.002 µM. The IC50 in [15] worked out at 0.319 µM; in experiment [16], 0.289 µM; in [17] it was 0.053 µM; in experiment [18], 0.134 µM; in experiment [19], 0.008 µM; in [20], 0.226 µM. For the same substance, the IC50 worked out at 0.083 µM in [21], 0.065 µM in [22], 0.019 µM in [25] and 0.066 µM in [23].

Regarding HSV1 36 (gD49-82) (peptide), the 50% inhibitory concentration (IC50) in [2] was 0.098 µM; in [4], greater than 100 µM; in [24], 0.173 µM; in experiment [5] it was 0.003 µM; in experiment [6] it was 0.066 µM; in experiment [7], 0.018 µM. Also, the half-maximal inhibitory concentration (IC50) in experiment [8] is 5 µM; in experiment [9], 0.615 µM; in experiment [10], 0.093 µM; in experiment [11], 0.12 µM; in [12] it was 1.25 µM; in [13] it was greater than 100 µM. In addition, the IC50 in experiment [14] is 0.018 µM; in [16] it was 0.12 µM; in experiment [17] it was 0.003 µM; in [18] it was 0.066 µM; in [19], 0.093 µM; in [20], 5 µM. For the same substance, the IC50 in [21] came to 0.615 µM; in experiment [22], 0.098 µM; in experiment [25] it was 0.173 µM; in [23], 1.25 µM.

On to HSV1 9 (gB837-870) (peptide), for which the IC50 in experiment [2] was found to be 4 µM; in [3], 16 µM; in experiment [4] it was 0.362 µM; in experiment [24], 0.229 µM; in experiment [5], 0.493 µM; in experiment [6] it was 0.559 µM. Further, the IC50 in [7] came out at 2.43 µM; in experiment [8], 58 µM; in experiment [9], 8 µM; in experiment [10] it was 4 µM; in [12] it was 11.4 µM; in [13], 0.362 µM. Besides, the IC50 stood at 2.43 µM in [14]; 16 µM in experiment [15]; 0.493 µM in experiment [17]; 0.559 µM in experiment [18]; 4 µM in [19]; 58 µM in experiment [20]. Also, the IC50 worked out at 8 µM in experiment [21], 4 µM in [22], 0.229 µM in experiment [25] and 11.4 µM in experiment [23].

As for HSV1 37 (gD200-234) (peptide), the IC50 turned out to be 0.167 µM in [2]; 3.74 µM in [3]; 2.05 µM in experiment [4]; 0.2 µM in experiment [24]; 0.004 µM in experiment [5]; 0.068 µM in experiment [6]. Besides, the IC50 in experiment [7] turned out to be 0.013 µM; in experiment [8], 0.041 µM; in experiment [10] it was 0.04 µM; in [11] it was 0.044 µM; in experiment [12], 0.307 µM; in experiment [13] it was 2.05 µM. Besides, the IC50 in experiment [14] turned out to be 0.013 µM; in experiment [15], 3.74 µM; in [16], 0.044 µM; in experiment [17] it was 0.004 µM; in [18], 0.068 µM; in experiment [19], 0.04 µM. Moreover, the IC50 was determined as 0.041 µM in [20], 0.167 µM in [22], 0.2 µM in [25] and 0.307 µM in experiment [23].

Regarding HSV1 39 (gD332-358) (peptide), the IC50 in [2] is greater than 100 µM; in [3] it was 0.703 µM; in experiment [24], 0.274 µM; in experiment [6], 0.031 µM; in experiment [7], 0.95 µM; in experiment [8], 2.31 µM. Moreover, the IC50 stood at 5.87 µM in experiment [10]; 0.005 µM in [11]; 0.95 µM in experiment [14]; 0.703 µM in experiment [15]; 0.005 µM in [16]; 0.031 µM in [18]. The IC50 in experiment [19] is 5.87 µM; in experiment [20] it was 2.31 µM; in experiment [22] it was greater than 100 µM; in experiment [25], 0.274 µM.

For HSV1 40 (gD228-257) (peptide), the IC50 in [2] was found to be 7.21 µM; in experiment [3], 1.16 µM; in experiment [4], 1.59 µM; in [24] it was 0.02 µM; in [5], 1.16 µM; in [7] it was 0.002 µM. The IC50 is greater than 100 µM in [8]; 1.36 µM in experiment [9]; 9.92 µM in experiment [10]; 0.039 µM in experiment [11]; 2.39 µM in experiment [12]; 1.59 µM in experiment [13]. The 50% inhibitory concentration (IC50) is 0.002 µM in experiment [14]; 1.16 µM in [15]; 0.039 µM in experiment [16]; 1.16 µM in [17]; 9.92 µM in experiment [19]; greater than 100 µM in experiment [20]. For the same substance, the IC50 in experiment [21] is 1.36 µM; in [22], 7.21 µM; in experiment [25], 0.02 µM; in [23] it was 2.39 µM.

In experiment [26], HA (307-319) (peptide) had an IC50 of 0.052 µM.
